The text below walks through data of the supplement of paper PMC10567573.

The chains are these.
B1: MLL5 (parent)
chain: DCMGIDRQHIPDTYLCERCQPRNL
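Also: lentivirally expressed fusions sorted by FACS into six bins by GFP to DsRed ratio, PSI derived from sequencing read proportions per bin multiplied by bin number.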

The variants in this data set derive from B1. The experiment in a line: protein stability index of a GFP-peptide fusion (GPS, HEK-293T) (PSI 1-6); higher = more stable. The note with it: c terminus: a fixed tail appended.
For DCMGIDRQHIPMTYLCERCQPRNL [D12M], the protein stability index was 3.1.

As to DCMGIDRQHIPITYLCERCQPRNL [D12I], the protein stability index amounted to 2.51.

In the case of DCMGIDRQHIPQTYLCERCQPRNL [D12Q], the protein stability index was 2.67.

In the case of DCMGIDRQHIPPTYLCERCQPRNL [D12P], the protein stability index was found to be 3.19.

Take DCMGIDRQHIPATYLCERCQPRNL [D12A]: the protein stability index was 2.01.

As to DCMGIDRQHIPNTYLCERCQPRNL [D12N], the protein stability index is 2.38.

Regarding DCMGIDRQHIPGTYLCERCQPRNL [D12G], the protein stability index came to 2.63.

As for DCMGIDRQHIPCTYLCERCQPRNL [D12C], the protein stability index stood at 2.67.

For DCMGIDRQHIPVTYLCERCQPRNL [D12V], the protein stability index turned out to be 1.69.

Turning to DCMGIDRQHIPDTYLLERCQPRNL [C16L], the protein stability index was 3.36.

Take DCMGIDRQHIPDTYLEERCQPRNL [C16E]: the protein stability index is 3.65.

As for DCMGIDRQHIPDTYLQERCQPRNL [C16Q], the protein stability index turned out to be 3.79.

DCMGIDRQHIPDTYLDERCQPRNL [C16D]: the protein stability index is 3.91.

As for DCMGIDRQHIPDTYLHERCQPRNL [C16H], the protein stability index worked out at 3.58.

For the variant DCMGIDRQHIPDTYLCERCQMRNL [P21M], the protein stability index turned out to be 3.62.

In the case of DCMGIDRQHIPDTYLCERCQRRNL [P21R], the protein stability index worked out at 3.4.

On to DCMGIDRQHIPDTYLCERCQHRNL [P21H], for which the protein stability index came to 2.76.

As for DCMGIDRQHIPDTYLCERCQGRNL [P21G], the protein stability index came to 3.45.

With DCMGIDRQHIPDTYLCERCQCRNL [P21C], the protein stability index was determined as 3.21.

On to DCMGIDRQHIPDTYLCERCQKRNL [P21K], for which the protein stability index was 3.53.

Take DSMGIDRQHIPDTYLCERCQPRNL [C2S]: the protein stability index turned out to be 2.63.

As to DFMGIDRQHIPDTYLCERCQPRNL [C2F], the protein stability index was determined as 2.1.

Take DYMGIDRQHIPDTYLCERCQPRNL [C2Y]: the protein stability index amounted to 2.53.

On to DPMGIDRQHIPDTYLCERCQPRNL [C2P], for which the protein stability index was 4.03.

On to DEMGIDRQHIPDTYLCERCQPRNL [C2E], for which the protein stability index is 3.79.

Consider DDMGIDRQHIPDTYLCERCQPRNL [C2D], for which the protein stability index stood at 3.08.

For the variant DGMGIDRQHIPDTYLCERCQPRNL [C2G], the protein stability index was determined as 2.7.

As for DQMGIDRQHIPDTYLCERCQPRNL [C2Q], the protein stability index was 3.48.

As for DKMGIDRQHIPDTYLCERCQPRNL [C2K], the protein stability index worked out at 2.99.

For the variant DCIGIDRQHIPDTYLCERCQPRNL [M3I], the protein stability index amounted to 2.77.

On to DCWGIDRQHIPDTYLCERCQPRNL [M3W], for which the protein stability index amounted to 3.54.

Consider DCTGIDRQHIPDTYLCERCQPRNL [M3T], for which the protein stability index came to 2.47.

For the variant DCEGIDRQHIPDTYLCERCQPRNL [M3E], the protein stability index amounted to 4.56.

In the case of DCAGIDRQHIPDTYLCERCQPRNL [M3A], the protein stability index came to 2.48.

Turning to DCSGIDRQHIPDTYLCERCQPRNL [M3S], the protein stability index was 3.66.

With DCGGIDRQHIPDTYLCERCQPRNL [M3G], the protein stability index is 2.94.

As for DCQGIDRQHIPDTYLCERCQPRNL [M3Q], the protein stability index came out at 2.48.

Regarding DCMGVDRQHIPDTYLCERCQPRNL [I5V], the protein stability index worked out at 3.16.

DCMGWDRQHIPDTYLCERCQPRNL [I5W]: the protein stability index is 2.88.

DCMGHDRQHIPDTYLCERCQPRNL [I5H]: the protein stability index stood at 3.99.

In the case of DCMGKDRQHIPDTYLCERCQPRNL [I5K], the protein stability index is 3.48.

For the variant DCMGRDRQHIPDTYLCERCQPRNL [I5R], the protein stability index is 3.37.

Take DCMGEDRQHIPDTYLCERCQPRNL [I5E]: the protein stability index came to 3.57.

Turning to DCMGQDRQHIPDTYLCERCQPRNL [I5Q], the protein stability index was 3.37.

With DCMGCDRQHIPDTYLCERCQPRNL [I5C], the protein stability index stood at 3.73.

On to DCMGGDRQHIPDTYLCERCQPRNL [I5G], for which the protein stability index is 3.5.

As for DCMGIDRQHIPDTYLCMRCQPRNL [E17M], the protein stability index is 2.28.

Turning to DCMGIDRQHIPDTYLCSRCQPRNL [E17S], the protein stability index was 2.64.

Consider DCMGIDRQHIPDTYLCVRCQPRNL [E17V], for which the protein stability index amounted to 1.71.

Turning to DCMGIDRQHIPDTYLCPRCQPRNL [E17P], the protein stability index came out at 2.96.

Turning to DCMGIDRQHIPDTYLCGRCQPRNL [E17G], the protein stability index worked out at 2.39.

On to DCMGIDRQHIPDTYLCKRCQPRNL [E17K], for which the protein stability index was found to be 2.6.

In the case of DCMGIDRQHIPDTYLCHRCQPRNL [E17H], the protein stability index was determined as 2.68.

In the case of DCMGIDRQHIPDTYLCFRCQPRNL [E17F], the protein stability index was determined as 2.25.

With DCMGIDRQHIPDTYLCLRCQPRNL [E17L], the protein stability index turned out to be 2.96.

Consider DCMGIDRQHIPDTYDCERCQPRNL [L15D], for which the protein stability index was 3.69.

As for DCMGIDRQHIPDTYSCERCQPRNL [L15S], the protein stability index was 3.76.

DCMGIDRQHIPDTYRCERCQPRNL [L15R]: the protein stability index stood at 3.61.

Turning to DCMGIDRQHIPDTYFCERCQPRNL [L15F], the protein stability index is 2.

Regarding DCMGIDRQHIPDTYWCERCQPRNL [L15W], the protein stability index came out at 2.81.

DCMGIDRQHIPDTYICERCQPRNL [L15I]: the protein stability index stood at 3.61.

Take DCMGIDRQHIPDTYNCERCQPRNL [L15N]: the protein stability index worked out at 3.8.

Regarding DCMGIDRQHIPDTYMCERCQPRNL [L15M], the protein stability index is 2.95.

Consider DCMGIDRQHIPDTYCCERCQPRNL [L15C], for which the protein stability index is 3.71.

With DCMGIDRQHHPDTYLCERCQPRNL [I10H], the protein stability index is 3.49.

DCMGIDRQHQPDTYLCERCQPRNL [I10Q]: the protein stability index turned out to be 3.42.

On to DCMGIDRQHRPDTYLCERCQPRNL [I10R], for which the protein stability index came to 3.

With DCMGIDRQHAPDTYLCERCQPRNL [I10A], the protein stability index worked out at 2.92.

Consider DCMGIDRQHGPDTYLCERCQPRNL [I10G], for which the protein stability index was determined as 3.13.

In the case of DCMGIDRQHNPDTYLCERCQPRNL [I10N], the protein stability index stood at 3.3.

On to KCMGIDRQHIPDTYLCERCQPRNL [D1K], for which the protein stability index amounted to 2.58.

RCMGIDRQHIPDTYLCERCQPRNL [D1R]: the protein stability index came out at 2.42.

As to ACMGIDRQHIPDTYLCERCQPRNL [D1A], the protein stability index was determined as 2.69.

On to DCMGIDTQHIPDTYLCERCQPRNL [R7T], for which the protein stability index came out at 3.02.

Consider DCMGIDCQHIPDTYLCERCQPRNL [R7C], for which the protein stability index stood at 4.09.

In the case of DCMGIDVQHIPDTYLCERCQPRNL [R7V], the protein stability index was determined as 2.39.

With DCMGIDIQHIPDTYLCERCQPRNL [R7I], the protein stability index amounted to 2.24.

On to DCMGIDPQHIPDTYLCERCQPRNL [R7P], for which the protein stability index was determined as 2.94.

On to DCMGIDHQHIPDTYLCERCQPRNL [R7H], for which the protein stability index is 3.73.

Regarding DCMGIDDQHIPDTYLCERCQPRNL [R7D], the protein stability index is 3.62.

With DCMGIDSQHIPDTYLCERCQPRNL [R7S], the protein stability index was 3.44.

DCMGIDFQHIPDTYLCERCQPRNL [R7F]: the protein stability index is 2.78.

Consider DCMGIDNQHIPDTYLCERCQPRNL [R7N], for which the protein stability index was 2.9.

Consider DCMGIDEQHIPDTYLCERCQPRNL [R7E], for which the protein stability index was found to be 3.58.

DCMGIDYQHIPDTYLCERCQPRNL [R7Y]: the protein stability index came to 2.2.

As for DCMGIDRLHIPDTYLCERCQPRNL [Q8L], the protein stability index came out at 1.99.

As to DCMGIDRGHIPDTYLCERCQPRNL [Q8G], the protein stability index worked out at 2.59.

Turning to DCMGIDRTHIPDTYLCERCQPRNL [Q8T], the protein stability index worked out at 2.33.

For the variant DCMGIDRKHIPDTYLCERCQPRNL [Q8K], the protein stability index was determined as 2.44.

Regarding DCMGIDRYHIPDTYLCERCQPRNL [Q8Y], the protein stability index was found to be 2.65.

Consider DCMGIDRSHIPDTYLCERCQPRNL [Q8S], for which the protein stability index was 3.25.

Take DCMGIDRIHIPDTYLCERCQPRNL [Q8I]: the protein stability index was determined as 2.56.

Consider DCMGIDRVHIPDTYLCERCQPRNL [Q8V], for which the protein stability index stood at 2.1.

On to DCMGIDRHHIPDTYLCERCQPRNL [Q8H], for which the protein stability index turned out to be 2.89.
